Assay results published in patent publication US12264201B2, “Bispecific antibody targeting IL-1R1 and NLPR3” (University of Ulster, priority 2018, dated 2025).

How the values were obtained:
THP1 cells = assay: Internalization of pHrodo red labelled bi-specific Ab in THP1 cells; type: cell-based; details: pHrodo red labelled Ab 1 ug/ml 30 min; differentiated THP1, LPS then ATP; confocal; FIG. 35A
Method: Internalization of Inflamab—see FIG. 35. THP1 cells, for FIG. 35, were cultured in 96-well plates at 100,000cells/200 ul complete media. Differentiation of THP1 cells was induced by PMA (100 ug/ml for 72 hours). Following 24 hours of rest, differentiated THP1 cells were stimulated with LPS (1 ug/ml) for 3 hours, treated with a pHrodo red labelled IL-1r/NLRP3 Ab (1 ug/ml) for 30 minutes, followed by ATP (5 mM) for 1 hour. The internalization of the Ab was tracked using a pHrodo red labelled bi-specific Ab that only fluoresces when internalized.

[1] = test system: Bone Marrow Derived Macrophages (BMDMs); assay: Inflammasome activation assay in bone marrow derived macrophages (cytokine ELISA); type: cell-based, C57BL/6 mice; details: murine BMDMs, FIG. 36
Method: Bone marrow cells were isolated from the tibias and femurs of C57BL/6 mice. To obtain bone marrow-derived dendritic cells (BMDCs), cells were cultured for 7 days at 37° C. and 5% CO2 in Iscove's modified Dulbecco's medium (IMDM) supplemented with 8% fetal calf serum (FCS), 1% penicillin/streptomycin (GE Healthcare Life Sciences, Marlborough, MA, USA), 1% glutamax (Thermo Fisher Scientific, Waltham, MA, USA) and 20 μM β-mercaptoethanol (Sigma-Aldrich, St. Louis, MO, USA) in the presence of 20 ng/mL gm-CSF (Preprotech, Rocky Hill, NJ, USA). To obtain bone marrow-derived macrophages (BMDMs), cells were cultured for 7 days in Roswell Park Memorial Institute medium (RPMI) supplemented with 10% FCS, 100 U/mL penicillin/streptomycin, 0.1 mM nonessential amino acids, 1% pyruvate and 2 mM L-glutamine (Thermo Fisher Scientific) in the presence of 20 ng/mL m-CSF (eBioscience)
For in vitro stimulation, 0.1×10^6 cells per well were added to 96-well flat-bottom plates (Greiner Bio-One, Kremsmunster, Austria). Cells were first primed with LPS (50 ng/mL) for 2 hours, after which cholesterol crystals (2 mg/mL) were added in the presence or absence of MCC950 (1 μM, Adipogen, San Diego, US) for an additional 4 hours. […]
InflaMab inhibits IL-1beta secretion in BMDMs—see FIG. 36. […] IL-1β release was measured in the supernatant by ELISA.

apoE−/− mice = assay: Atherosclerosis: collar-induced carotid artery plaque formation, morphometry; type: in vivo
Description: Female apoE−/− mice were fed a Western-type diet, containing 0.25% cholesterol and 15% cacao butter (SDS, Sussex, UK) starting two weeks prior to surgery and throughout the experiment. After 2 weeks of diet feeding, carotid artery plaque formation was induced by perivascular collar placement in these mice as described previously (von der Thusen et al, Circulation. 2001; 103(8):1164-1170). […] Through the experiment, mice were weighed weekly and blood samples were obtained via the tail vein. Total cholesterol levels were determined in the serum using enzymatic colorimetric procedures (Roche/Hitachi, Mannheim, Germany). Precipath (Roche/Hitachi) was used as an internal standard. Fasting glucose levels were determined in mice at 2 weeks after starting the treatment with InflaMab and were measured with an Accu-Check glucometer (Roche Diagnostics, Almere, The Netherlands). For lipid profiling, serum samples pooled from 3 mice were used (n=3 samples per group) which were diluted 6 times, and fractionation of plasma lipoproteins was performed using an AKTA-FPLC. In each fraction, the total cholesterol levels were determined by incubation with cholesterol CHOD-PAP Reagent (Roche, Woerden, The Netherlands). Absorbance was measured at 492 nm.
After 4 weeks of treatment, the mice were anesthetized and in situ perfused, after which the carotid arteries were collected, frozen in OCT compound (TissueTek; Sakura Finetek, The Netherlands) and stored at −80° C. Transverse 10 μm cryosections were prepared on a Leica CM 3050S Cryostat (Leica Instruments) in a proximal direction for (immuno)histochemical analysis.
Cryosections were routinely stained with hematoxylin (Sigma-Aldrich, Zwijndrecht, The Netherlands) and eosin (Merck Diagnostica, Darmstadt, Germany). Morphometric analysis (Leica Qwin image analysis software) was performed on hematoxylin-eosin stained sections of the carotid arteries. For each carotid, lesion size was quantified every 100 μm, from the first appearance of the lesion proximal to the collar up to complete disappearance of the lesion from the artery. The number of sections analyzed ranged from 5 to 15 sections per mouse, from which average plaque size and plaque volume were calculated. The section with the largest plaque size was annotated as the plaque with maximum stenosis. For the quantification of lesion content in the carotid artery, four consecutive cross-sections containing the largest lesions were used. To determine lipid content, sections were stained with Oil-Red-O (Sigma-Aldrich). Macrophage content of the lesions was assessed using a rat monoclonal MOMA-2 antibody (Serotec, Kidlington, Oxford, UK). Collagen was visualized using a Sirius Red staining (Sigma-Aldrich). Mast cells and neutrophils were visualized by staining of cryosections with naphthol AS-D chloroacetate esterase (Sigma-Aldrich). The number of mast cells and neutrophils was assessed manually in two consecutive cross-sections containing the largest lesions. MOMA-2 and collagen positive areas were quantified by Leica Qwin image analysis software using a Leica DM-RE microscope (Leica Microsystems Inc., Wetzlar, Germany). All morphometric analyses were performed by a blinded operator (T.v.d.H.).
Atherosclerosis study: InflaMab reduces plaque size in an in vivo apoe−/− model of atherosclerosis—see FIG. 38. After 2 weeks of western type diet feeding in female apoE−/− mice, carotid artery plaque formation was induced by perivascular collar placement. […] Carotid arteries then collected for cyrosections. For each carotid, lesion size was quantitated every 80 μm, from the first appearance of the lesion proximal to the collar up to complete disappearance of the lesion from the artery.

B1: InflaMab: 210 kDa bispecific mouse antibody to IL-1R1 and NLRP3; light chain SEQ ID NO: 57, heavy chain with scFv SEQ ID NO: 59 (protein)
light: MVSSAQFLGLLLLCFQGTRCDIVMTQSPATLSVTPGDRVSLSCRASQSISDYLSWYQQRSHESPRLIIKYASQSISGIPSRFSGSGSGSDFTLSINSVEPEDVGVYYCQHGHSFPLTFGSGTKLELKRADAAPTVSIFPPSSEQLTSGGASVVCFLNNFYPKDINVKWKIDGSERQNGVLNSWTDQDSKDSTYSMSSTLTLTKDEYERHNSYTCEATHKTSTSPIVKSFNRNEC
heavy: MGWTLVFLFLLSVTAGVHSQIQLVQSGPELRKPGETVRISCKASGYPFTTAGLQWVQKMSGKGLKWIGWMNTQSEVPKYAEEFKGRIAFSLETAASTAYLQINNLKTEDTATYFCAKSVYFNWRYFDVWGAGTTVTVSSAKTTAPSVYPLAPVCGDTTGSSVTLGCLVKGYFPEPVTLTWNSGSLSSGVHTFPAVLQSDLYTLSSSVTVTSSTWPSQSITCNVAHPASSTKVDKKIEPRGPTIKPCPPCKCPAPNLLGGPSVFIFPPKIKDVLMISLSPIVTCVVVDVSEDDPDVQISWFVNNVEVHTAQTQTHREDYNSTLRVVSALPIQHQDWMSGKEFKCKVNNKDLPAPIERTISKPKGSVRAPQVYVLPPPEEEMTKKQVTLTCMVTDFMPEDIYVEWTNNGKTELNYKNTEPVLDSDGSYFMYSKLRVEKKNWVERNSYSCSVVHEGLHNHHTTKSFSRTPGKGSAGGSGGDSEVQLVESGGGLVKPGGSLKLSCAASGFTFSDYYMYWVRQTPEKRLEWVATISDGGTYTYYPDSVKGRFTISRDNAKNNLYLQMNSLKSEDTAMYYCARGWVSTMVKLLSSFPYWGQGTLVTVSAGGGGSGGGGSGGGGSQAVVTQESALTTSPGETVTLTCRSSTGAVTTSNYANWVQEKPDHLFTGLIGGTNNRAPGVPARFSGSLIGDKAALTITGAQTEDEAIYFCALWYSNYWVFGGGTKLTVLGQPK
- internalization of the Ab (THP1 cells): shows the internalization
- secretion of TNFalpha ([1]; same cells, specificity): no effect
- IL-1beta secretion ([1]; LPS 50 ng/ml, Inflamab 30 min, Alum 50 μg/ml 1 h, ELISA): dose-dependently inhibit
- reduction in lesion size (apoE−/− mice; FIG. 38, significant, versus control): −35%
- Mouse weight (apoE−/− mice; InflaMab versus control groups): no difference
- general white blood cell levels (hematology analysis) (apoE−/− mice; InflaMab versus control groups): no difference
- % reduction of plaque size at site of maximal stenosis (apoE−/− mice; InflammAb average versus Control IgG average): 30.6164%
- Average plaque size, group Average (apoE−/− mice; group average, 10 mice listed): 36604 μm^2
- Lumen size at site of maximal stenosis, Average (apoE−/− mice; group average, 10 mice listed): 11415 μm^2
- Media (size) at site of maximal stenosis, Average (apoE−/− mice; group average, 10 mice listed): 40997 μm^2
- Plaque size at site of maximal stenosis, Average (apoE−/− mice; group average, 10 mice listed): 58881 μm^2
- total vessel area at site of maximal stenosis, Average (apoE−/− mice; group average, 10 mice listed): 111293 μm^2
- Lumen size (area of the artery still open for blood flow) compared to Control IgG (apoE−/− mice; in words): almost significantly larger
- Total vessel area (plaque+media+lumen) compared to Control IgG (apoE−/− mice; in words): not different
- media size (size of the medial smooth muscle layer) compared to Control IgG (apoE−/− mice; in words, Tables 5 and 6): no effect
- lesion size, FIG. 38a (apoE−/− mice; versus control, in words): trend towards a reduction
